# Where a chain is given by its changes, count along the chain named. Numbers in names are those of the source. Like-named read-outs stand apart in the source and are kept apart here.
# B1: Bcl10 R36E/E50R/D51R triple mutant (natural protein)
# chain: MEPTAPSLTEEDLTEVKKDALENLRVYLAEKIIAEEHFDHLRAKKILSRRRTEEISARTSSRKRAGKLLDYLQENPKGLDTLVESIRREKTQNFLIQKITDEVLKLRNIKLEHLKGLKCSSCEPFPDGATNNLSRSNSDESNFSEKLRASTVMYHPEGESSTTPFFSTNSSLNLPVLEVGRTENTIFSSTTLPRPGDPGAPPLPPDLQLEEEGTCANSSEMFLPLRSRTVSRQ
# B2: Alexa 488-labeled Bcl10 (C29A/C57A double mutant), MBP removed by TEV (natural protein, human, UniProt O95999 1-233, looked up)
# chain: B1 chain with E36R, R50E, R51D
# modifications: Alexa 488 label (site not stated)
# B3: CARMA1 (8–302) (domain or fragment, human, UniProt Q9BXL7 8-302, looked up)
# chain: MDDYMETLKDEEDALWENVECNRHMLSRYINPAKLTPYLRQCKVIDEQDEDEVLNAPMLPSKINRAGRLLDILHTKGQRGYVVFLESLEFYYPELYKLVTGKEPTRRFSTIVVEEGHEGLTHFLMNEVIKLQQQMKAKDLQRCELLARLRQLEDEKKQMTLTRVELLTFQERYYKMKEERDSYNDELVKVKDDNYNLAMRYAQLSEEKNMAVMRSRDLQLEIDQLKHRLNKMEEECKLERNQSLKLKNDIENRPKKEQVLELERENEMLKTKNQELQSIIQAGKRSLPDSDKAIL
# B4: CARMA1 (8–172) (domain or fragment, human, UniProt Q9BXL7 8-172, looked up)
# chain: MDDYMETLKDEEDALWENVECNRHMLSRYINPAKLTPYLRQCKVIDEQDEDEVLNAPMLPSKINRAGRLLDILHTKGQRGYVVFLESLEFYYPELYKLVTGKEPTRRFSTIVVEEGHEGLTHFLMNEVIKLQQQMKAKDLQRCELLARLRQLEDEKKQMTLTRVE
# Legend:
# [1] = target: the molecule itself; assay: fluorescence polarisation
# [2] = target: the molecule itself; assay: fluorescence polarisation; remark: listed apart in the source
# [3] = target: the molecule itself; assay: fluorescence polarisation; remark: listed apart in the source
# [4] = target: the molecule itself; assay: SEC
# [5] = target: the molecule itself; assay: SEC-MALS
protein,measurement,setting,value
B1,polymerization activity relative to WT Bcl10,[1],~50%
B2,Kd,[2],800 nM
same,Kd,[3],4300 nM
B3,stoichiometry N,[4],> 100
B4,stoichiometry N,[5],3

# From article PMC3929958 (Molecular cell, 2013)
